Assay results published in patent publication US20180214568A1.

How the values were obtained:
[1] = biological target: CD56 on the surface of human neuroblastoma cells (human) (UniProt P13591); test: flow cytometry, isotype control staining of Kelly cells
[2] = biological target: CD56 on the surface of human neuroblastoma cells (human) (UniProt P13591); test: flow cytometry, isotype control staining of SKNAS cells
[3] = biological target: CD56 on the surface of human neuroblastoma cells (human) (UniProt P13591); test: flow cytometry, MY31 staining of Kelly cells, untreated
[4] = biological target: CD56 on the surface of human neuroblastoma cells (human) (UniProt P13591); test: flow cytometry, MY31 staining of SKNAS cells, untreated
[5] = biological target: CD56 on the surface of human neuroblastoma cells (human) (UniProt P13591); test: flow cytometry, MY31 staining of Kelly cells after overnight treatment with 25 nM control IgG
[6] = biological target: CD56 on the surface of human neuroblastoma cells (human) (UniProt P13591); test: flow cytometry, MY31 staining of SKNAS cells after overnight treatment with 25 nM control IgG
[7] = biological target: CD56 on the surface of human neuroblastoma cells (human) (UniProt P13591); test: flow cytometry, MY31 staining of Kelly cells after overnight treatment with 25 nM m906 (remaining surface CD56)
[8] = biological target: CD56 on the surface of human neuroblastoma cells (human) (UniProt P13591); test: flow cytometry, MY31 staining of Kelly cells after overnight treatment with 50 nM m906 (remaining surface CD56)
[9] = biological target: CD56 on the surface of human neuroblastoma cells (human) (UniProt P13591); test: flow cytometry, MY31 staining of SKNAS cells after overnight treatment with 25 nM m906 (remaining surface CD56)
[10] = biological target: CD56 on the surface of human neuroblastoma cells (human) (UniProt P13591); test: flow cytometry, MY31 staining of SKNAS cells after overnight treatment with 50 nM m906 (remaining surface CD56)
[11] = biological target: CD56 on the surface of human neuroblastoma cells (human) (UniProt P13591); test: flow cytometry, MY31 staining of Kelly cells after overnight treatment with 12.5 nM m906 (remaining surface CD56)
[12] = biological target: CD56 on the surface of human neuroblastoma cells (human) (UniProt P13591); test: flow cytometry, MY31 staining of SKNAS cells after overnight treatment with 12.5 nM m906 (remaining surface CD56)

| Substance | Geometric Mean [1] | Geometric Mean [2] | Geometric Mean [3] | Geometric Mean [4] | Geometric Mean [5] | Geometric Mean [6] | Geometric Mean [7] | Geometric Mean [8] | Geometric Mean [9] | Geometric Mean [10] | Geometric Mean [11] | Geometric Mean [12] |
| --- | --- | --- | --- | --- | --- | --- | --- | --- | --- | --- | --- | --- |
| PE Isotype Control (antibody) | 4710 | 10700 |  |  |  |  |  |  |  |  |  |  |
| anti-CD56 antibody MY31 |  |  | 53700 | 12500 | 63700 | 13300 | 6420 | 6030 | 10600 | 10300 | 7150 | 10200 |
